Data reported in the nanobody polyreactivity screen of Harvey et al. (2022).

experiment: yeast display, Sf9 membrane polyspecificity reagent, FACS + sequencing; frameworks hold sequencing errors
Outline: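 In a synthetic yeast display library (Saccharomyces cerevisiae BJ5465), nanobody expression was induced with galactose for 36–48 hours. FACS gates were set low and high (top ~1%) using anti-HA fluorescence for expression and streptavidin fluorescence for binding of the Sf9 membrane reagent. Each polyreactivity label is drawn from the gate of origin.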

| Sequence | polyreactivity (PSR sort gate) |
| --- | --- |
| QVQLVESGGGLVQAAGSLRLSCAASGSISGYYAMGWYRQAPGKERELVASIRYTGARTYYADSVKGRFTISRDNAKNTVYLQMNSLKPEDTAVYYCAADVKRDRVWGGDYWGQGTQVTVSS | low polyreactivity |
| QVQLVESGGGLVQAAGSLRLSCAASGSPFSGYAMGWYRQPPGKQRELVAAISWRGVRTSYADSVKGRFTISRDNAKNRVYLQMNSLKPEDSAVYYCDAVRYITKEFYWGQGTQVTVSS | high polyreactivity |
| QVQLVESGGGLVQAAGSLRLSCAASGSTFADNAMGWYRQAPGKEREMVAANSRRGGSTYYADSVKGRFTISLDNAKNTVYLQMNSLKPEDTAVYYCAKPSGLVVNQYRAGMEYWGQGTQVTVSS | high polyreactivity |
| QVQLVESGGGLVQAAGSLRLSCASSGSIIFYYAMGWYRQAPGNEREFVAAITRSGVRTYYADSVKGRFTISRDNAKNTVYLQMNSLIPEDTAVYYCIAEAYPYWYRGASREYDYWGQGTQVTVSS | low polyreactivity |
| QVQLVESGGGLVQAEGSLRLSCAASGNTFERNTMGWYRQATGKERELVAAISWSGGRTYYADSVKGRFTISRDNAKNTVYLQLNSLKPEDTAVYYCAATNYYYGAGYYYWGQGTQVTVSS | high polyreactivity |
| QVQLVESGGGLVQAGASLRISCAASGYTFYANAMGWYIQAPGKEREFVASITWSGGSTYYADSVKGRFTISRDNAKNTVYLQMNSLKPEDTAVYYCAAESWFKYDYWGQGTQVTLSS | low polyreactivity |
| QVQLVESGGGLVQAGASLRLICAASGSTFQGNAIGWNRQAPGKERELVAAISRSGGSTYADSVKGRFTISRDNAKNTVYLQLNSLKPEDTAVYYCAAYSGVGYLWFDYWGQGTQVTVSS | low polyreactivity |
| QVQLVESGGGLVQAGASLRLSCAASGITFWGYAMGWYRQAPGKEREFVARINWSGGRTYYAESVKGRFTISRDNAKNTVYLEMNSLKPEDTAVYDCAATSLIYGYRTYDYWGQGTQVTVSS | high polyreactivity |
| QVQLVESGGGLVQAGASLRLSCAASGLTFEYYTMGWYRQAPGKERELVAAITSSGGSTYYADSVKGRFTISRDNAKNTVYLQMNSLKPEDTAVYYCNAYWTYEFPSYDYWGQGTQVTVSS | low polyreactivity |
| QVQLVESGGGLVQAGASLRLSCAASGRIYIYAMGWYRQAPGKEREMVAAITGGASTNYADSVKGRFTISRDNAKNTVYLQLISLKPEDTAVYYCNAVAYVYGSFRRRPMGYWGQGTQVTVSS | high polyreactivity |
| QVQLVESGGGLVQAGASLRLSCAASGRTFAYYAMGWYRQAPGKERELVATITSSVGRTYYADSVKGRFTISRDNAKNTVYLQINSLKPEDTAVYYCNASDWGRTRGGGYPWLYRYDYWGQGTQVTVSS | low polyreactivity |
| QVQLVESGGGLVQAGASLRLSCAASGRTFHYYVKGWYRQAPGKERELVAAISRSGGRTYYADSVKGRFTISRDNAKNTVYLQMNSLNPEDTAVYFCAARSGYYYSEGAWRRDYWGQGTQVTLSS | high polyreactivity |
| QVQLVESGGGLVQAGASLRLSCAASGRTLTGYAMGWYRQAPGKERELVAAITWRDSTYYADSVKGRFTISRDNAKNTVYLQMNSLKPEDTAVYYCNADNATYFVYEFNYWGQGTQVTVSS | low polyreactivity |
| QVQLVESGGGLVQAGASLRLSCAASGSIFIWYAMGWYRQAPGKERELVAAITSSGSTNYADSVKGRFTISRDNAKNPVYLQMNSLKPEDTAVYYCAAEYTYYTYNLNYWGQGTQVTVSS | low polyreactivity |
| QVQLVESGGGLVQAGASLRLSCAASGSIFVLYGMGWYRQAPGKERELVAAISAGITNYADSVKGRFTISRDNAKNTVYLQMNSLKPEDTAVYYCATVDGAYQYTYDFWGQGTQVTVSS | low polyreactivity |
| QVQLVESGGGLVQAGASLRLSCAASGSIFYDNAMGWYRQAPGKERELVASIRWSGDSTYYADSVKGRITISRDNAKNTVYLQMNSLKPEDTAVYYCAADPVEPYFTAIAYDYWGQGTQVTVSS | low polyreactivity |
| QVQLVESGGGLVQAGASLRLSCAASGSTFLLNAMGWYRQAPGKERELVAAITSSGGTNYADSVKGRFTISRDNAKNTVYLQMNSLKPEDTAVYYCNTRYSPGYQGSEVDYWGQGTQVTVSS | low polyreactivity |
